According to patent US9822336B2, “Blastoid, cell line based artificial blastocyst” (Universiteit Maastricht, priority 2013, dated 2017):

Assays:
ES-TS cell clusters = experiment: Cavitation of ES-TS cell clusters (yield of cavitated blastoids); format: cell-based, mouse; settings: FIG. 4h; CHIR99021 at 3 uM
Method: FIG. 4c: […], The yield of cavitated blastoids is described by the percentage of ES-TS cell clusters that were cavitated after 96 hours of culture, thus forming an artificial blastocyst or blastoid. […]
The efficiency of blastoid formation is measured as the percentage of cavitated structures with (1) an external cellular layer expressing the transcription factors CDX2, Eomes and GATA3 and (2) an internal cellular aggregate expressing the transcription factors Oct4 and Sox2 and at least partly Nanog.
The formation of a cavity is assessed by the formation of a volume within the aggregate that is not occupied by cellular nucleus. The formation of a cavity is preferably assessed using the cross-sectional section of a cellular aggregate stained with a nuclear-specific dye (for example DAPI).
• Double layer formation: the formation of an (at least) double layered cell aggregate with an external layer of TS cells and an inner layer of ES cells is evaluated using transgenic cell lines. […] The H2B-RFP ES cells are thus constitutively expressing a red fluorescence within their nucleus which allows for their tracking. • TS cells were derived from a mouse constitutively expressing Green Fluorescent Protein (GFP) under the control of a cytomegalovirus promoter in all cells. […]

[1] = system: Cdx2 expression in trophoblast stem cells of ES-TS aggregates; experiment: Cdx2 expression by CDX2 immunostaining; format: cell-based, mouse; settings: CDX2 immunostaining (FIG. 4g)
Method: • Double layer formation: the formation of an (at least) double layered cell aggregate with an external layer of TS cells and an inner layer of ES cells is evaluated using transgenic cell lines. Specifically, ES cells were transfected with Histone 2B and a Red Fluorescent Protein under the control of a cytomegalovirus promoter and clonally derived. The H2B-RFP ES cells are thus constitutively expressing a red fluorescence within their nucleus which allows for their tracking. • TS cells were derived from a mouse constitutively expressing Green Fluorescent Protein (GFP) under the control of a cytomegalovirus promoter in all cells. The GFP TS cells are thus expressing a green fluorescence in their cytoplasma which allows for their tracking. • The formation of a double-layered aggregate is thus assessed by observing a green outer layer of cells and a red inner layer of cells. The efficiency of engulfment is determined as the percentage of green-colored projection area (representing the TS cell layer) that overlaps with an artificial 3-pixel-wide ring drawn around the red-colored projection area (representing the inner aggregate of ES cells) after 24 hours of culturing the ES-TS cell clusters. […] The formation of a cavity is preferably assessed using the cross-sectional section of a cellular aggregate stained with a nuclear-specific dye (for example DAPI). […]

Molecule	yield of cavitated blastoids / cavitation (ES-TS cell clusters)	Cdx2 expression [1]
Wnt3a: Wnt ligand (protein, UniProt P56704 19-352, looked up) Protein Wnt-3a: SYPIWWSLAVGPQYSSLGSQPILCASIPGLVPKQLRFCRNYVEIMPSVAEGIKIGIQECQHQFRGRRWNCTTVHDSLAIFGPVLDKATRESAFVHAIASAGVAFAVTRSCAEGTAAICGCSSRHQGSPGKGWKWGGCSEDIEFGGMVSREFADARENRPDARSAMNRHNNEAGRQAIASHMHLKCKCHGLSGSCEVKTCWWSQPDFRAIGDFLKDKYDSASEMVVEKHRESRGWVETLRPRYTYFKVPTERDLVYYEASPNFCEPNPETGSFGTRDRTCNVSSHGIDGCDLLCCGRGHNARAERRREKCRCVFHWCCYVSCQECTRVYDVHTCK	increases the yield of cavitated blastoids	–
HB-EGF: a protein and a growth factor known in the art to activate the MAPK signalling pathway (protein, UniProt Q99075 63-148, looked up, Heparin-binding EGF-like growth factor) Heparin-binding EGF-like …: DLQEADLDLLRVTLSSKPQALATPNKEEHGKRKKKGKGLGKKRDPCLRKYKDFCIHGECKYVKELRAPSCICHPGYHGERCHGLSL	–	positively correlates with an increase of Cdx2 expression
